US20210181204A1

Target: eCry3.1Ab hybrid insecticidal protein
Assay: direct ELISA: eCry3.1Ab coated at 1 ug/ml, RGS-His HRP detection

B1: synNAPS13 variant Y44A (designed binder)
chain: RGSHHHHHHGSMVKVKFKRWGEEKEVDTSKILHVLRVGKYVRFSYDDNGKLGAGAVTEKDAPKELLDMLARAEREKK
  Binding (OD 450 nm): 0.4 OD 450 nm
